Legend:
HeLa Kyoto [1] = test: solubility in G1/S (NP-40 vs SDS abundance) (log2 ratio); higher = more soluble; details: cell cycle stage: G1/S
HeLa Kyoto [2] = test: solubility change mitosis vs G1/S (difference of NP-40 vs SDS log2 ratios) (log2 ratio difference); higher = more soluble in mitosis
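Throughout, for solubility change mitosis vs G1/S (difference of NP-40 vs SDS log2 ratios): synchronized HeLa Kyoto cells (double thymidine block for G1/S, nocodazole release for mitosis), protein amounts in NP-40 versus SDS lysates quantified by mass spectrometry, three biological replicates.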
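Throughout, for solubility in G1/S (NP-40 vs SDS abundance): HeLa Kyoto cells arrested at G1/S by double thymidine block, proteins quantified by TMT10plex mass spectrometry in mild NP-40 versus SDS extracts, three biological replicates.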

Row | Sequence | solubility in G1/S (log2) (HeLa Kyoto [1]) | solubility change mitosis (log2) (HeLa Kyoto [2])
1 | MPLSSPNAAATASDMDKNSGSNSSSASSGSSKGQQPPRSASAGPAGESKPKSDGKNSSGSKRYNRKRELSYPKNESFNNQSRRSSSQKSKTFNKMPPQRGGGSSKLFSSSFNGGRRDEVAEAQRAEFSPAQFSGPKKINLNHLLNFTFEPRGQTGHFEGSGHGSWGKRNKWGHKPFNKELFLQANCQFVVSEDQDYTAHFADPDTLVNWDFVEQVRICSHEVPSCPICLYPPTAAKITRCGHIFCWACILHYLSLSEKTWSKCPICYSSVHKKDLKSVVATESHQYVVGDTITMQLMKREKGVLVALPKSKWMNVDHPIHLGDEQHSQYSKLLLASKEQVLHRVVLEEKVALEQQLAEEKHTPESCFIEAAIQELKTREEALSGLAGSRREVTGVVAALEQLVLMAPLAKESVFQPRKGVLEYLSAFDEETTEVCSLDTPSRPLALPLVEEEEAVSEPEPEGLPEACDDLELADDNLKEGTICTESSQQEPITKSGFTRLSSSPCYYFYQAEDGQHMFLHPVNVRCLVREYGSLERSPEKISATVVEIAGYSMSEDVRQRHRYLSHLPLTCEFSICELALQPPVVSKETLEMFSDDIEKRKRQRQKKAREERRRERRIEIEENKKQGKYPEVHIPLENLQQFPAFNSYTCSSDSALGPTSTEGHGALSISPLSRSPGSHADFLLTPLSPTASQGSPSFCVGSLEEDSPFPSFAQMLRVGKAKADVWPKTAPKKDENSLVPPAPVDSDGESDNSDRVPVPSFQNSFSQAIEAAFMKLDTPATSDPLSEEKGGKKRKKQKQKLLFSTSVVHTK [RNF10] | -0.172 | -0.000862
2 | MPQKDPCQKQACEIQKCLQANSYMESKCQAVIQELRKCCAQYPKGRSVVCSGFEKEEEENLTRKSASK [CMC4] | -1.4 | 0.221
3 | MPSRAEDYEVLYTIGTGSYGRCQKIRRKSDGKILVWKELDYGSMTEAEKQMLVSEVNLLRELKHPNIVRYYDRIIDRTNTTLYIVMEYCEGGDLASVITKGTKERQYLDEEFVLRVMTQLTLALKECHRRSDGGHTVLHRDLKPANVFLDGKQNVKLGDFGLARILNHDTSFAKTFVGTPYYMSPEQMNRMSYNEKSDIWSLGCLLYELCALMPPFTAFSQKELAGKIREGKFRRIPYRYSDELNEIITRMLNLKDYHRPSVEEILENPLIADLVADEQRRNLERRGRQLGEPEKSQDSSPVLSELKLKEIQLQERERALKAREERLEQKEQELCVRERLAEDKLARAENLLKNYSLLKERKFLSLASNPELLNLPSSVIKKKVHFSGESKENIMRSENSESQLTSKSKCKDLKKRLHAAQLRAQALSDIEKNYQLKSRQILGMR [NEK2] | -0.123 | 0.191
4 | MPSSTSPDQGDDLENCILRFSDLDLKDMSLINPSSSLKAELDGSTKKKYSFAKKKAFALFVKTKEVPTKRSFECKEKLWKCCRQLFTDQTSIHRHVATQHADEIYHQTASILKQLAVTLSTSKSLSSADEKNPLKECLPHSHDVSAWLPDISCFNPDELISGQGSEEGEVLLYYCYHDLEDPQWICAWQTALCQHLHLTGKIRIAAEGINGTVGGSKLATRLYVEVMLSFPLFKDDLCKDDFKTSKGGAHCFPELRVGVFEEIVPMGISPKKISYKKPGIHLSPGEFHKEVEKFLSQANQEQSDTILLDCRNFYESKIGRFQGCLAPDIRKFSYFPSYVDKNLELFREKRVLMYCTGGIRCERGSAYLKAKGVCKEVFQLKGGIHKYLEEFPDGFYKGKLFVFDERYALSYNSDVVSECSYCGARWDQYKLCSTPQCRQLVLTCPACQGQGFTACCVTCQDKGSRKVSGPMQDSFKEECECTARRPRIPRELLQHVRQPVSPEPGPDADEDGPVLM [TSTD2] | 0.0173 | -0.113
5 | MPVQAAQWTEFLSCPICYNEFDENVHKPISLGCSHTVCKTCLNKLHRKACPFDQTAINTDIDVLPVNFALLQLVGAQVPDHQSIKLSNLGENKHYEVAKKCVEDLALYLKPLSGGKGVASLNQSALSRPMQRKLVTLVNCQLVEEEGRVRAMRAARSLGERTVTELILQHQNPQQLSANLWAAVRARGCQFLGPAMQEEALKLVLLALEDGSALSRKVLVLFVVQRLEPRFPQASKTSIGHVVQLLYRASCFKVTKRDEDSSLMQLKEEFRSYEALRREHDAQIVHIAMEAGLRISPEQWSSLLYGDLAHKSHMQSIIDKLQSPESFAKSVQELTIVLQRTGDPANLNRLRPHLELLANIDPNPDAVSPTWEQLENAMVAVKTVVHGLVDFIQNYSRKGHETPQPQPNSKYKTSMCRDLRQQGGCPRGTNCTFAHSQEELEKYRLRNKKINATVRTFPLLNKVGVNNTVTTTAGNVISVIGSTETTGKIVPSTNGISNAENSVSQLISRSTDSTLRALETVKKVGKVGANGQNAAGPSADSVTENKIGSPPKTPVSNVAATSAGPSNVGTELNSVPQKSSPFLTRVPVYPPHSENIQYFQDPRTQIPFEVPQYPQTGYYPPPPTVPAGVAPCVPRFVRSNNVPESSLPPASMPYADHYSTFSPRDRMNSSPYQPPPPQPYGPVPPVPSGMYAPVYDSRRIWRPPMYQRDDIIRSNSLPPMDVMHSSVYQTSLRERYNSLDGYYSVACQPPSEPRTTVPLPREPCGHLKTSCEEQIRRKPDQWAQYHTQKAPLVSSTLPVATQSPTPPSPLFSVDFRADFSESVSGTKFEEDHLSHYSPWSCGTIGSCINAIDSEPKDVIANSNAVLMDLDSGDVKRRVHLFETQRRTKEEDPIIPFSDGPIISKWGAISRSSRTGYHTTDPVQATASQGSATKPISVSDYVPYVNAVDSRWSSYGNEATSSAHYVERDRFIVTDLSGHRKHSSTGDLLSLELQQAKSNSLLLQREANALAMQQKWNSLDEGRHLTLNLLSKEIELRNGELQSDYTEDATDTKPDRDIELELSALDTDEPDGQSEPIEEILDIQLGISSQNDQLLNGMAVENGHPVQQHQKEPPKQKKQSLGEDHVILEEQKTILPVTSCFSQPLPVSISNASCLPITTSVSAGNLILKTHVMSEDKNDFLKPVANGKMVNS [RC3H2] | 0.279 | -0.128
6 | MPVQAPQWTDFLSCPICTQTFDETIRKPISLGCGHTVCKMCLNKLHRKACPFDQTTINTDIELLPVNSALLQLVGAQVPEQQPITLCSGVEDTKHYEEAKKCVEELALYLKPLSSARGVGLNSTTQSVLSRPMQRKLVTLVHCQLVEEEGRIRAMRAARSLGERTVTELILQHQNPQQLSSNLWAAVRARGCQFLGPAMQEEALKLVLLALEDGSALSRKVLVLFVVQRLEPRFPQASKTSIGHVVQLLYRASCFKVTKRDEDSSLMQLKEEFRTYEALRREHDSQIVQIAMEAGLRIAPDQWSSLLYGDQSHKSHMQSIIDKLQTPASFAQSVQELTIALQRTGDPANLNRLRPHLELLANIDPSPDAPPPTWEQLENGLVAVRTVVHGLVDYIQNHSKKGADQQQPPQHSKYKTYMCRDMKQRGGCPRGASCTFAHSQEELEKFRKMNKRLVPRRPLSASLGQLNEVGLPSAAILPDEGAVDLPSRKPPALPNGIVSTGNTVTQLIPRGTDPSYDSSLKPGKIDHLSSSAPGSPPDLLESVPKSISALPVNPHSIPPRGPADLPPMPVTKPLQMVPRGSQLYPAQQTDVYYQDPRGAAPPFEPAPYQQGMYYTPPPQCVSRFVRPPPSAPEPAPPYLDHYPPYLQERVVNSQYGTQPQQYPPIYPSHYDGRRVYPAPSYTREEIFRESPIPIEIPPAAVPSYVPESRERYQQIESYYPVAPHPTQIRPSYLREPPYSRLPPPPQPHPSLDELHRRRKEIMAQLEERKVISPPPFAPSPTLPPTFHPEEFLDEDLKVAGKYKGNDYSQYSPWSCDTIGSYIGTKDAKPKDVVAAGSVEMMNVESKGMRDQRLDLQRRAAETSDDDLIPFGDRPTVSRFGAISRTSKTIYQGAGPMQAMAPQGAPTKSINISDYSPYGTHGGWGASPYSPHQNIPSQGHFSERERISMSEVASHGKPLPSAEREQLRLELQQLNHQISQQTQLRGLEAVSNRLVLQREANTLAGQSQPPPPPPPKWPGMISSEQLSLELHQVEREIGKRTRELSMENQCSLDMKSKLNTSKQAENGQPEPQNKVPAEDLTLTFSDVPNGSALTQENISLLSNKTSSLNLSEDPEGGGDNNDSQRSGVTPSSAP [RC3H1] | 0.308 | -0.0375
7 | MPVSTSLHQDGSQERPVSLTSTTSSSGSSCDSRSAMEEPSSSEAPAKNGAGSLRSRHLPNSNNNSSSWLNVKGPLSPFNSRAAAGPAHHKLSYLGRVVREIVETERMYVQDLRSIVEDYLLKIIDTPGLLKPEQVSALFGNIENIYALNSQLLRDLDSCNSDPVAVASCFVERSQEFDIYTQYCNNYPNSVAALTECMRDKQQAKFFRDRQELLQHSLPLGSYLLKPVQRILKYHLLLQEIAKHFDEEEDGFEVVEDAIDTMTCVAWYINDMKRRHEHAVRLQEIQSLLINWKGPDLTTYGELVLEGTFRVHRVRNERTFFLFDKTLLITKKRGDHFVYKGNIPCSSLMLIESTRDSLCFTVTHYKHSKQQYSIQAKTVEEKRNWTHHIKRLILENHHATIPQKAKEAILEMDSYYPNRYRCSPERLKKAWSSQDEVSTNVRQGRRQSEPTKHLLRQLNEKARAAGMKGKGRRESESSRSSRRPSGRSPTSTEKRMSFESISSLPEVEPDPEAGSEQEVFSAVEGPSAEETPSDTESPEVLETQLDAHQGLLGMDPPGDMVDFVAAESTEDLKALSSEEEEEMGGAAQEPESLLPPSVLDQASVIAERFVSSFSRRSSVAQEDSKSSGFGSPRLVSRSSSVLSLEGSEKGLARHGSATDSLSCQLSPEVDISVGVATEDSPSVNGMEPPSPGCPVEPDRSSCKKKESALSTRDRLLLDKIKSYYENAEHHDAGFSVRRRESLSYIPKGLVRNSISRFNSLPRPDPEPVPPVGSKRQVGSRPTSWALFELPGPSQAVKGDPPPISDAEFRPSSEIVKIWEGMESSGGSPGKGPGQGQANGFDLHEPLFILEEHELGAITEESATASPESSSPTEGRSPAHLARELKELVKELSSSTQGELVAPLHPRIVQLSHVMDSHVSERVKNKVYQLARQYSLRIKSNKPVMARPPLQWEKVAPERDGKSPTVPCLQEEAGEPLGGKGKRKPVLSLFDYEQLMAQEHSPPKPSSAGEMSPQRFFFNPSAVSQRTTSPGGRPSARSPLSPTETFSWPDVRELCSKYASRDEARRAGGGRPRGPPVNRSHSVPENMVEPPLSGRVGRCRSLSTKRGRGGGEAAQSPGPLPQSKPDGGETLYVTADLTLEDNRRVIVMEKGPLPSPTAGLEESSGQGPSSPVALLGQVQDFQQSAECQPKEEGSRDPADPSQQGRVRNLREKFQALNSVG [PLEKHG3] | -0.79 | -0.239
8 | MQPGSSRCEEETPSLLWGLDPVFLAFAKLYIRDILDMKESRQVPGVFLYNGHPIKQVDVLGTVIGVRERDAFYSYGVDDSTGVINCICWKKLNTESVSAAPSAARELSLTSQLKKLQETIEQKTKIEIGDTIRVRGSIRTYREEREIHATTYYKVDDPVWNIQIARMLELPTIYRKVYDQPFHSSALEKEEALSNPGALDLPSLTSLLSEKAKEFLMENRVQSFYQQELEMVESLLSLANQPVIHSASSDQVNFKKDTTSKAIHSIFKNAIQLLQEKGLVFQKDDGFDNLYYVTREDKDLHRKIHRIIQQDCQKPNHMEKGCHFLHILACARLSIRPGLSEAVLQQVLELLEDQSDIVSTMEHYYTAF [OBFC1] | 0.0155 | -0.0863

Reference: the supplement of paper PMC5998384
